Patent US9993529B2, “Stable formulations of a hyaluronan-degrading enzyme” (Halozyme, Inc., priority 2011, dated 2018)

Assay: RP-HPLC insulin percent purity
Type: physicochemical
Description: Apparent solubility was measured as the percent insulin recovery as compared to the initial formulations/conditions.
To determine the apparent solubility, the peak area of insulin/insulin analog main peak and desamido peak were integrated and combined together to calculate the percentage relative to the standards. […] The data were processed using Design-Expert® 7.0 (StatEase) and the “historical data” feature. Insulin percent purity was expressed as the percent of main insulin versus all insulin species.

Regular Insulin: mature human insulin, SEQ ID NOS: 103 and 104
Percent of insulin main peak (80 mM NaCl, pH 7.6, 5 months at 2-8° C.): 97.67% | Percent of insulin main peak (80 mM NaCl, pH 7.6, 9 months at 2-8° C.): 97.31% | Percent of insulin main peak (110 mM NaCl, pH 7.0, 0 months at 2-8° C.): 97.64% | Percent of insulin main peak (110 mM NaCl, pH 7.0, 0.25 months at 2-8° C.): 97.31% | Percent of insulin main peak (110 mM NaCl, pH 7.0, 0.5 months at 2-8° C.): 97.57% | Percent of insulin main peak (110 mM NaCl, pH 7.0, 1 month at 2-8° C.): 96.64% | Percent of insulin main peak (110 mM NaCl, pH 7.0, 3 months at 2-8° C.): 96.10% | Percent of insulin main peak (110 mM NaCl, pH 7.0, 5 months at 2-8° C.): 97.79% | Percent of insulin main peak (110 mM NaCl, pH 7.2, 0 months at 2-8° C.): 97.62% | Percent of insulin main peak (110 mM NaCl, pH 7.2, 0.25 months at 2-8° C.): 97.46% | Percent of insulin main peak (110 mM NaCl, pH 7.2, 0.5 months at 2-8° C.): 97.35% | Percent of insulin main peak (110 mM NaCl, pH 7.2, 3 months at 2-8° C.): 97.49% | Percent of insulin main peak (110 mM NaCl, pH 7.2, 5 months at 2-8° C.): 97.61% | Percent of insulin main peak (110 mM NaCl, pH 7.2, 9 months at 2-8° C.): 95.91% | Percent of insulin main peak (110 mM NaCl, pH 7.4, 0 months at 2-8° C.): 97.65% | Percent of insulin main peak (110 mM NaCl, pH 7.4, 0.25 months at 2-8° C.): 97.58% | Percent of insulin main peak (110 mM NaCl, pH 7.4, 0.5 months at 2-8° C.): 97.39% | Percent of insulin main peak (110 mM NaCl, pH 7.4, 1 month at 2-8° C.): 97.36% | Percent of insulin main peak (110 mM NaCl, pH 7.4, 3 months at 2-8° C.): 97.36% | Percent of insulin main peak (110 mM NaCl, pH 7.4, 5 months at 2-8° C.): 97.79% | Percent of insulin main peak (110 mM NaCl, pH 7.4, 9 months at 2-8° C.): 96.91% | Percent of insulin main peak (110 mM NaCl, pH 7.6, 0 months at 2-8° C.): 97.58% | Percent of insulin main peak (110 mM NaCl, pH 7.6, 0.25 months at 2-8° C.): 97.57% | Percent of insulin main peak (110 mM NaCl, pH 7.6, 0.5 months at 2-8° C.): 97.60% | Percent of insulin main peak (110 mM NaCl, pH 7.6, 1 month at 2-8° C.): 97.52% | Percent of insulin main peak (110 mM NaCl, pH 7.6, 3 months at 2-8° C.): 97.42% | Percent of insulin main peak (110 mM NaCl, pH 7.6, 5 months at 2-8° C.): 97.61% | Percent of insulin main peak (110 mM NaCl, pH 7.6, 9 months at 2-8° C.): 97.31% | Percent of insulin main peak (140 mM NaCl, pH 7.0, 0 months at 2-8° C.): 97.65% | Percent of insulin main peak (140 mM NaCl, pH 7.0, 0.25 months at 2-8° C.): 97.15% | Percent of insulin main peak (140 mM NaCl, pH 7.0, 1 month at 2-8° C.): 96.39% | Percent of insulin main peak (140 mM NaCl, pH 7.0, 3 months at 2-8° C.): 96.16% | Percent of insulin main peak (140 mM NaCl, pH 7.0, 9 months at 2-8° C.): 95.17% | Percent of insulin main peak (140 mM NaCl, pH 7.2, 0 months at 2-8° C.): 97.56% | Percent of insulin main peak (140 mM NaCl, pH 7.2, 0.25 months at 2-8° C.): 97.37% | Percent of insulin main peak (140 mM NaCl, pH 7.2, 1 month at 2-8° C.): 96.62% | Percent of insulin main peak (140 mM NaCl, pH 7.2, 3 months at 2-8° C.): 96.60% | Percent of insulin main peak (140 mM NaCl, pH 7.2, 9 months at 2-8° C.): 95.49% | Percent of insulin main peak (140 mM NaCl, pH 7.4, 0 months at 2-8° C.): 97.64% | Percent of insulin main peak (140 mM NaCl, pH 7.4, 0.25 months at 2-8° C.): 97.57% | Percent of insulin main peak (140 mM NaCl, pH 7.4, 0.5 months at 2-8° C.): 97.33% | Percent of insulin main peak (140 mM NaCl, pH 7.4, 1 month at 2-8° C.): 97.23% | Percent of insulin main peak (140 mM NaCl, pH 7.4, 3 months at 2-8° C.): 97.38% | Percent of insulin main peak (140 mM NaCl, pH 7.4, 5 months at 2-8° C.): 97.73% | Percent of insulin main peak (140 mM NaCl, pH 7.4, 9 months at 2-8° C.): 96.10% | Percent of insulin main peak (140 mM NaCl, pH 7.6, 0 months at 2-8° C.): 97.64% | Percent of insulin main peak (140 mM NaCl, pH 7.6, 0.25 months at 2-8° C.): 97.61% | Percent of insulin main peak (140 mM NaCl, pH 7.6, 0.5 months at 2-8° C.): 97.41% | Percent of insulin main peak (140 mM NaCl, pH 7.6, 1 month at 2-8° C.): 97.51% | Percent of insulin main peak (140 mM NaCl, pH 7.6, 3 months at 2-8° C.): 97.35% | Percent of insulin main peak (140 mM NaCl, pH 7.6, 5 months at 2-8° C.): 97.56% | Percent of insulin main peak (140 mM NaCl, pH 7.6, 9 months at 2-8° C.): 97.07% | insulin main peak percentage (regular insulin/rHuPH20, long term storage at 2-8° C.): about 97%
